Target: PTPδ D2-His6 F1503A (mouse)
Experiment: SPR; Biacore T200, 25 °C, 10 mM Hepes-NaOH pH 7.5, 150 mM NaCl, 0.005% Tween-20; wild-type or mutant PTPδ D2-His6 amine-coupled on a CM5 chip; wild-type or mutant Liprin-α3 tSAM injected, twofold dilutions from 40 µM to 39 nM; equilibrium KD

mouse Liprin-α3 tSAM (residues 808–1114), sequence (P60469 808-1114): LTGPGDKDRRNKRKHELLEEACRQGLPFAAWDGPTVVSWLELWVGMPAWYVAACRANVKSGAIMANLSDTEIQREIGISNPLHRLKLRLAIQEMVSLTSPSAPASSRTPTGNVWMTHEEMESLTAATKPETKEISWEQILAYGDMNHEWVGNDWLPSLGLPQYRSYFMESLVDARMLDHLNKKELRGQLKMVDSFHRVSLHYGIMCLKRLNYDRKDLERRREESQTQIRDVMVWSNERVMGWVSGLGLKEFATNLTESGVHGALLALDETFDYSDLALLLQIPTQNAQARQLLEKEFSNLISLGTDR

Kd: 8.3 µM
Substance: mouse Liprin-α3 tSAM (residues 808–1114) (from UniProt P60469 808-1114) (domain or fragment)
